Target: His6-GFP-nCLU
Assay: AlphaScreen or HTRF; 30 nM His6-GFP fusion protein with 0-60 nM biotinylated GST-IPO13; triplicates, sigmoidal association curves

B1: biotinylated GST-IPO13 (natural protein)
chain: MERREEQLGAAGAGAAPALDFTVENVEKALHQLYYDPNIDNKNLAQKWLMQAQVSPQAWHFSWQLLQPDKVPEIQYFGASALHIKISRYWSDIPTDQYESLKAQLFTQITRFASGSKIVLTRLCVALASLALSMMPDAWPCAVADMVRLFQAEDSPVDSQGRCLALLELLTVLPEEFQTSRLPQYRKGLVRTSLAVECGTVFPLLEQLLQQPSSPSCVRQKVLKCFSSWVQLEVPLQDCEALIQAAFAALQDSELFDSSVEAIVNAISQPDAQRYVNTLLKLIPLVLGLQEQLRQAVQNGDMETSHGICRIAVALGENHSRALLDQVEHWQSFLALVNMIMFCTGIPGHYPVNETTSSLTLTFWYTLQDDILSFEAEKQAVYQQVYRPVYFQLVDVLLHKAQFPSDEEYGFWSSDEKEQFRIYRVDISDTLMYVYEMLGAELLSNLYDKLGRLLTSSEEPYSWQHTEALLYGFQSIAETIDVNYSDVVPGLIGLIPRISISNVQLADTVMFTIGALSEWLADHPVMINSVLPLVLHALGNPELSVSSVSTLKKICRECKYDLPPYAANIVAVSQDVLMKQIHKTSQCMWLMQALGFLLSALQVEEILKNLHSLISPYIQQLEKLAEEIPNPSNKLAIVHILGLLSNLFTTLDVSHHEDDHEGPELRKLPVPQGPNPVVVVLQQVFQLIQKVLSKWLNDAQVVEAVCAIFEKSVKTLLDDFAPMVPQLCEMLGRMYSTVPQASALDLTRQLVHIFAHEPAHFPPIEALFLLVTSVTLSLFQQGPRDHPDIVDSFMQLLAQALKRKPDLFLCERLDVKAVFQCAVLALKFPEAPTVKASCGFFTELLPRCGEIESVGKVVQEDGRMLLIAVLEAIGGQASRSLMDCFADILFALNKHCFSLLSMWIKEALQPPGFPSARLSPEQKDTFSQQILRERVNKRRVKEMVKEFTLLCRGLHGTDYTADY
modifications: biotinylated
  Kd: 2.8 nM
